In patent US20210063414A1, “METHODS FOR PREVENTING AND/OR TREATING BONE LOSS CONDITIONS BY MODULATING IRISIN” (Dana-Farber Cancer Institute, Inc., priority 2018, published 2021) one finds summed signal-to-noise value for TMT channel and irsin/adipsin (TMT ratio) data, which are given here for 2 substances.

For assay [1], the target named is Fibronectin type III domain-containing protein 3B (Fndc3b) of MLO-Y4 cells (mouse) (UniProt Q6NWW9). Briefly: DTSSP cross-linking on MLO-Y4 cells, his-tag pull-down, TMT mass spectrometry; adipsin (control) channel.
In assay [2] the target is T1, Membrane magnesium transporter 1 (Mmgt1) of MLO-Y4 cells (mouse) (UniProt Q8K273).
T1 sequence (looked up): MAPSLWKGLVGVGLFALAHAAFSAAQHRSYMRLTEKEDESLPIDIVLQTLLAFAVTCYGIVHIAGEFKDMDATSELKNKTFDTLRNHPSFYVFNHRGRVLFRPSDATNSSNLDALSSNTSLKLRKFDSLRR
The description is as above.

Assay [3] deals with T2, CD81 antigen (Cd81) of MLO-Y4 cells (mouse) (UniProt P35762).
T2 sequence (looked up): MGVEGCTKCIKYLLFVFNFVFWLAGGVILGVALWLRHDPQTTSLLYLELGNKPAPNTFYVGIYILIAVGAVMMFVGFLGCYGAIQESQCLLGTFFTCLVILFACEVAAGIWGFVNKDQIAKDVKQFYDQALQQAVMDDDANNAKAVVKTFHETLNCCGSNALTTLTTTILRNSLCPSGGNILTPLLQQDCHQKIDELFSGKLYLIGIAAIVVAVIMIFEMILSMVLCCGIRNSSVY
The description is as above.

For assay [4], the target named is T3, Integrin alpha-V (Itgav) of MLO-Y4 cells (mouse) (UniProt P43406).
T3 sequence (looked up): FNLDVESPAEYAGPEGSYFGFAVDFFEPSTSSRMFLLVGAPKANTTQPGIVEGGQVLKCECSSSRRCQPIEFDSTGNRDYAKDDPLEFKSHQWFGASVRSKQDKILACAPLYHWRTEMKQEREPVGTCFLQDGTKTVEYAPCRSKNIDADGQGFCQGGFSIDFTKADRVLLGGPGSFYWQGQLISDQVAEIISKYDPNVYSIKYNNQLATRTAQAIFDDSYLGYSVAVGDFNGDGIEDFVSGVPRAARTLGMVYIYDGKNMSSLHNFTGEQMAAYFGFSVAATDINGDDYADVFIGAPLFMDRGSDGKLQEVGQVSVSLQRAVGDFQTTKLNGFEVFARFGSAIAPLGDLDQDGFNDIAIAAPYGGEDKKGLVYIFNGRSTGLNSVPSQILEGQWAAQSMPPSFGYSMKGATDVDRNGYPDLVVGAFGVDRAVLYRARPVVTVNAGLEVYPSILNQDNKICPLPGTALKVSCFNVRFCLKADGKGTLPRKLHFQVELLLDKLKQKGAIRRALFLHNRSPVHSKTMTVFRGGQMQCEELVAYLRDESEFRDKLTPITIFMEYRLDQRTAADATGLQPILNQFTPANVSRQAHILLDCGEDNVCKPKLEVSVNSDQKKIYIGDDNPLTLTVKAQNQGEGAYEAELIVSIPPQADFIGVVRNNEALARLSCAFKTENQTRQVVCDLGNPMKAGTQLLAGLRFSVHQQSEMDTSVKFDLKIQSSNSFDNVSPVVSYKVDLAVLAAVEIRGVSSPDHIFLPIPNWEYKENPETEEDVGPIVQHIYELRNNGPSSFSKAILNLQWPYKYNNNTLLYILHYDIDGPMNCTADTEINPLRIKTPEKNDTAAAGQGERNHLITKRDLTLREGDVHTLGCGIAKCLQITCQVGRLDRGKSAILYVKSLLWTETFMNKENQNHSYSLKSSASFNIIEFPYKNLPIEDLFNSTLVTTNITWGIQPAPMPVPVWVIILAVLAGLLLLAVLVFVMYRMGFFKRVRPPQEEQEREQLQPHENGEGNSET
The assay is described as above.

For assay [5], the target named is Integrin beta-1 (Itgb1) of MLO-Y4 cells (mouse) (UniProt P09055). The description is as above.
Assay [6] has as its target Protocadherin alpha-4 (Pcdha4) of MLO-Y4 cells (mouse) (UniProt O88689). Described as above.
The target in assay [7] is T4, Integrin beta-5 (Itgb5) of MLO-Y4 cells (mouse) (UniProt O70309).
T4 sequence (looked up): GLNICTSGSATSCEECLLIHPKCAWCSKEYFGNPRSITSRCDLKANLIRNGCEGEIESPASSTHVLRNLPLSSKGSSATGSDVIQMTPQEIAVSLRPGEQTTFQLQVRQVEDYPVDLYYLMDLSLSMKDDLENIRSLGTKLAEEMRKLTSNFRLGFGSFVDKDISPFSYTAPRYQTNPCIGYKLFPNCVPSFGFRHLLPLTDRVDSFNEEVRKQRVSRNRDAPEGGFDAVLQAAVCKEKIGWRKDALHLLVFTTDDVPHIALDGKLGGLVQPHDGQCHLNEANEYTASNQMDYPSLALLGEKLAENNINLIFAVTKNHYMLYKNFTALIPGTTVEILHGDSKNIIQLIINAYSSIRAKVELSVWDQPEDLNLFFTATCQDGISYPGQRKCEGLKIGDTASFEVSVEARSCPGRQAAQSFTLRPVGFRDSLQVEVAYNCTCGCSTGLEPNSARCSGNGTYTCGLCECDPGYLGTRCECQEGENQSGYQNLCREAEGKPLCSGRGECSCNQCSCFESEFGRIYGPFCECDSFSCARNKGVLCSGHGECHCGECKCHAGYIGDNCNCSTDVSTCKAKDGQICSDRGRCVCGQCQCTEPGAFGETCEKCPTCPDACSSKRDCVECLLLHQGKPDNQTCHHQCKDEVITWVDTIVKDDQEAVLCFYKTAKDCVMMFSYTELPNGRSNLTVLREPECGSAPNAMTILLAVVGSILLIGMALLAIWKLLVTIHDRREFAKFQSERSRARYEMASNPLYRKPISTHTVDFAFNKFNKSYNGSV
The description is as above.

Assay [8] deals with Fibronectin type III domain-containing protein 3B (Fndc3b) of MLO-Y4 cells (mouse) (UniProt Q6NWW9). Description: DTSSP cross-linking of his-tag ligand on MLO-Y4 cells, his-tag pull-down, TMT quantitative mass spectrometry; ratio to his-tag adipsin control.
Assay [9] has as its target T2, CD81 antigen (Cd81) of MLO-Y4 cells (mouse). Described as above.
The target of assay [10] is Membrane magnesium transporter 1 (Mmgt1) of MLO-Y4 cells (mouse) (UniProt Q8K273). Described as above.
Assay [11] addresses Protocadherin alpha-4 (Pcdha4) of MLO-Y4 cells (mouse) (UniProt O88689). Described as above.
Assay [12] has as its target Fibronectin type III domain-containing protein 3B (Fndc3b) of MLO-Y4 cells (mouse) (UniProt Q6NWW9). Briefly: DTSSP cross-linking on MLO-Y4 cells, his-tag pull-down, TMT mass spectrometry; irisin channel.
Assay [13] has as its target T2, CD81 antigen (Cd81) of MLO-Y4 cells (mouse). The description is as above.
Assay [14] deals with Membrane magnesium transporter 1 (Mmgt1) of MLO-Y4 cells (mouse) (UniProt Q8K273). The assay is described as above.
Assay [15] concerns the target Protocadherin alpha-4 (Pcdha4) of MLO-Y4 cells (mouse) (UniProt O88689). The assay is described as above.

Chain of Protocadherin alpha-4 (Pcdha4) of MLO-Y4 cells (mouse) (O88689 other isoform, or with tags, fused parts or gaps): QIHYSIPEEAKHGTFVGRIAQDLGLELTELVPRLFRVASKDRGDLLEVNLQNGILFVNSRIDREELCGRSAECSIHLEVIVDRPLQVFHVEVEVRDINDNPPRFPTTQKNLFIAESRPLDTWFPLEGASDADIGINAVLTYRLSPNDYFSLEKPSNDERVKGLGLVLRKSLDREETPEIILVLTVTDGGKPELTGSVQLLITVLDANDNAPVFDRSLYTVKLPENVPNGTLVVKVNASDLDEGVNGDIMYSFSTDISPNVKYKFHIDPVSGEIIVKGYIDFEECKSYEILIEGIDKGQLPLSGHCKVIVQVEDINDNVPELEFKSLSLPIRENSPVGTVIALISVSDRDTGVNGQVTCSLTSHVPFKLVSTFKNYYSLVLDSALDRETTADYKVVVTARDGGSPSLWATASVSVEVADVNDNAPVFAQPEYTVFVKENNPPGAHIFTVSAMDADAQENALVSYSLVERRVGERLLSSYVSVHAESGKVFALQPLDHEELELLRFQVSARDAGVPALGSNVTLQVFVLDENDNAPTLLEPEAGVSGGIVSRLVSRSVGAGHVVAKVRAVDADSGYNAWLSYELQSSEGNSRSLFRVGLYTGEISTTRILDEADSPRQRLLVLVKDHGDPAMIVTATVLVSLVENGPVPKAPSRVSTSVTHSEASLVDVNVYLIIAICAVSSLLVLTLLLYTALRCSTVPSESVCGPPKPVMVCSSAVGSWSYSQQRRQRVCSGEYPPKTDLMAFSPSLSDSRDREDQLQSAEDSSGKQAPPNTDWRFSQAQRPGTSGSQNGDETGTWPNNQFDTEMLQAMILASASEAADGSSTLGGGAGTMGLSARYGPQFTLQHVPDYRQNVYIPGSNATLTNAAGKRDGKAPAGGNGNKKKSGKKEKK
Chain of Fibronectin type III domain-containing protein 3B (Fndc3b) of MLO-Y4 cells (mouse) (Q6NWW9 whole entry, the tested form may be a part): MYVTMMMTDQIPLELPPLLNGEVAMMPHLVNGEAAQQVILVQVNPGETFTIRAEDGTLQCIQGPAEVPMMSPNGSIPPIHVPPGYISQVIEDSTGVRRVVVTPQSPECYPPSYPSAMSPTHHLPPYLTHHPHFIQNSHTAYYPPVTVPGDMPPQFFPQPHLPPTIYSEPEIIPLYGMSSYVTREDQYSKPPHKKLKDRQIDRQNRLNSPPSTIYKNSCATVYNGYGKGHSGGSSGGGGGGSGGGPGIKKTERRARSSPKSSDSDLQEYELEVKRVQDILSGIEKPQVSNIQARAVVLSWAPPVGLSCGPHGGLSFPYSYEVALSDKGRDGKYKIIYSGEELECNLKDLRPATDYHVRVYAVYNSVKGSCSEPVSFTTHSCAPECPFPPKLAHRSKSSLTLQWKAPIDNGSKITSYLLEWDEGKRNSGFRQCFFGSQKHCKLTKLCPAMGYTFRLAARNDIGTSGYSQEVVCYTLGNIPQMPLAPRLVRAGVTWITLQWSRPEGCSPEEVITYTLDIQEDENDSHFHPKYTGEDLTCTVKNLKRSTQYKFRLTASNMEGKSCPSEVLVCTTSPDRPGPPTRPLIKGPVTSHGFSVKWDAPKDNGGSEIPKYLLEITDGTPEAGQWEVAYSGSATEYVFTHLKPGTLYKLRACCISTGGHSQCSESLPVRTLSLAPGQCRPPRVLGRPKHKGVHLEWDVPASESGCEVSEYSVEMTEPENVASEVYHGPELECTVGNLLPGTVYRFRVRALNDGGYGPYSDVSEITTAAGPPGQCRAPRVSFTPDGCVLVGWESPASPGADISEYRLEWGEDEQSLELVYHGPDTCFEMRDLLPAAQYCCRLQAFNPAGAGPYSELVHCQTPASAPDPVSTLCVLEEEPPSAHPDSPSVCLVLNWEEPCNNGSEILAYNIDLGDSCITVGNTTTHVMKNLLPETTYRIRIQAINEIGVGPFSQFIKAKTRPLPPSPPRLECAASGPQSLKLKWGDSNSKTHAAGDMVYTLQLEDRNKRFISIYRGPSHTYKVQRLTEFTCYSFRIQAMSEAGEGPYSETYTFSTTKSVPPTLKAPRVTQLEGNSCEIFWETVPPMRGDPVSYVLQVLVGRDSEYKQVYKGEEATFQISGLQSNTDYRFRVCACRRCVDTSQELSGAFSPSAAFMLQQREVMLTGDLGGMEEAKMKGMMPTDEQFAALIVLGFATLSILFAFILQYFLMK
Chain of His-tag adipsin (R&D Systems, Cat. # AF1824-SP) (P00746 26-253): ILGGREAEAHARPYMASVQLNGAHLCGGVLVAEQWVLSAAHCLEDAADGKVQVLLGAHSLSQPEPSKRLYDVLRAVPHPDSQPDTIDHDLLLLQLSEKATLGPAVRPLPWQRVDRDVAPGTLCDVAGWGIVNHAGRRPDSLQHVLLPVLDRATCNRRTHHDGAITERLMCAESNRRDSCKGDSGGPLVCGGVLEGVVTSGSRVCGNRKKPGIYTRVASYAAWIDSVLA
Chain of Integrin beta-1 (Itgb1) of MLO-Y4 cells (mouse) (P09055 21-798): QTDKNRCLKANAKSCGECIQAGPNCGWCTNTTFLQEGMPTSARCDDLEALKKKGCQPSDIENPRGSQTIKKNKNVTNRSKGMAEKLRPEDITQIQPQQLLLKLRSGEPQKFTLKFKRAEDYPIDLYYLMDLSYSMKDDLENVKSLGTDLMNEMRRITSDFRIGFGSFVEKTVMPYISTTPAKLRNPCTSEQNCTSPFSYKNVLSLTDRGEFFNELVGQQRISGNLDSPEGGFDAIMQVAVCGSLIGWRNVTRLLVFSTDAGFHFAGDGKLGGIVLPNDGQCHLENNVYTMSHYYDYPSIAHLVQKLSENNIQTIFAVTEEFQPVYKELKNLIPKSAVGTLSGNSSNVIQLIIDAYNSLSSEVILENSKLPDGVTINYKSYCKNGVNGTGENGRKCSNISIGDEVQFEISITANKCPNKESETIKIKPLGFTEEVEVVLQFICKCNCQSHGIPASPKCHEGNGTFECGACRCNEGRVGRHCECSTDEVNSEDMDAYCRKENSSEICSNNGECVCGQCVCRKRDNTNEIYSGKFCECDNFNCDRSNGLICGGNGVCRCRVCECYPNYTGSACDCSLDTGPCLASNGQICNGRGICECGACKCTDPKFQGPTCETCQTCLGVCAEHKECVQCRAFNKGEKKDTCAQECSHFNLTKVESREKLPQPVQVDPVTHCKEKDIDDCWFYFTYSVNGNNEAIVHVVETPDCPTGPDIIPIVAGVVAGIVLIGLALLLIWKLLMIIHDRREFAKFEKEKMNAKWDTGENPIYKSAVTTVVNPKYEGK

With “His-tag adipsin (R&D Systems, Cat. # AF1824-SP)”, the summed signal-to-noise value for TMT channel in [1] was determined as 449; in [2], 17.4; in [3], 105; in assay [4], 54.4; in [5], 250; in assay [6], 17.1. Also, the summed signal-to-noise value for TMT channel in assay [7] was 148.

Take “His-tag recombinant irisin (irisin (human/mouse) with a C-terminal 10 his tag, produced in HEK293 cells) (from UniProt Q8K3V5 60-171) (ligand)”: the irsin/adipsin (TMT ratio) in [8] stood at 2.88; in assay [9] it was 4.05; in assay [10], 2.94; in [11], 4.39. Further, the summed signal-to-noise value for TMT channel was 1290 in assay [12], 427 in assay [13], 51.2 in assay [14] and 75.2 in [15].
